{"source": "paper PMC6152381", "about": "“The C5 Variant of the Butyrylcholinesterase Tetramer Includes a Noncovalently Bound 60 kDa Lamellipodin Fragment” (Molecules : A Journal of Synthetic Chemistry and Natural …, 2017)", "molecules": {"B1": {"name": "human butyrylcholinesterase (BChE) (enzyme, human (endogenous in plasma), UniProt P06276 29-602, looked up)", "chain": "EDDIIIATKNGKVRGMNLTVFGGTVTAFLGIPYAQPPLGRLRFKKPQSLTKWSDIWNATKYANSCCQNIDQSFPGFHGSEMWNPNTDLSEDCLYLNVWIPAPKPKNATVLIWIYGGGFQTGTSSLHVYDGKFLARVERVIVVSMNYRVGALGFLALPGNPEAPGNMGLFDQQLALQWVQKNIAAFGGNPKSVTLFGESAGAASVSLHLLSPGSHSLFTRAILQSGSFNAPWAVTSLYEARNRTLNLAKLTGCSRENETEIIKCLRNKDPQEILLNEAFVVPYGTPLSVNFGPTVDGDFLTDMPDILLELGQFKKTQILVGVNKDEGTAFLVYGAPGFSKDNNSIITRKEFQEGLKIFFPGVSEFGKESILFHYTDWVDDQRPENYREALGDVVGDYNFICPALEFTKKFSEWGNNAFFYYFEHRSSKLPWPEWMGVMHGYEIEFVFGLPLERRDNYTKAEEILSRSIVKRWANFAKYGNPNETQNNSTSWPVFKSTEQKYLTLNTESTRIMTKLRAQQCRFWTSFFPKVLEMTGNIDEAEWEWKAGFHRWNNYMMDWKNQFNDYTSKKESCVGL", "modifications": "9 N-linked glycans", "notes": "each subunit has 574 amino acids; forty residues at the C-terminus are the tetramerization domain; also called C4; BChE tetramer; source: also purified from Cohn Fraction IV-4 (Q-ceramic ion exchange, hupresin)"}}, "key": {"[1]": {"biological_target": "mouse anti-human BChE monoclonal antibody B2 18-5 (mouse)", "sequence (heavy, as listed by the source, chain 1 of 2)": "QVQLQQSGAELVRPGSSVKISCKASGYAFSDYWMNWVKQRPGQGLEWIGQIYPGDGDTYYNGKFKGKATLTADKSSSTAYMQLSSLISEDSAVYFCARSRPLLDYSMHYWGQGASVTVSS", "sequence (light, as listed by the source, chain 2 of 2)": "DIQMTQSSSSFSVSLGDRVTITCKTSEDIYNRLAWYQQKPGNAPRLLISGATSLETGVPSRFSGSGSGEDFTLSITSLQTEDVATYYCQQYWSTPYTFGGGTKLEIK", "assay": "capture on immobilised antibody, activity assay of the unbound supernatant; hupresin-purified BChE (C4 and C5) in 0.02 M procaine, 0.02 M TrisCl pH 7.5 rotated with 0.04 mL B2 18-5 Sepharose beads at room temperature for 4 h"}, "[2]": {"biological_target": "the molecule itself", "assay": "native gel or EMSA; pure human BChE from Cohn Fraction IV-4 on a 4-30% nondenaturing polyacrylamide gradient gel, 4 °C, stained for BChE activity"}}, "data": [{"molecule": "human butyrylcholinesterase (BChE) (from UniProt P06276 29-602) (enzyme)", "values": [{"measurement": "percent bound", "setting": "[1]", "value": 97, "unit": "%"}]}, {"molecule": "B1", "values": [{"measurement": "binding result", "setting": "[2]", "value": "binds"}]}]}
